# B1: Subtilisin inhibitor, P01006 (parent)
# chain: MRNTGAGPSPSVSRPPPSAAPLSGAALAAPGDAPSALYAPSALVLTVGKGVSATTAAPERAVTLTCAPGPSGTHPAAGSACADLAAVGGDLNALTRGEDVMCPMVYDPVLLTVDGVWQGKRVSYERVFSNECEMNAHGSSVFAF
# Variants of: B1
# Conditions: Streptomyces albogriseolus, Thermal, DSC, reversible: yes, structure 3SSI, whole UniProt chain shown; for ddG of mutation (higher = less stable) / unfolding free energy: 53.36 °C
Variant,"Tm (pH 3.2, glycine 25 mM)","change of melting temperature, mutant - wild type (higher = more stable) (pH 3.2, glycine 25 mM)","unfolding enthalpy (calorimetric) (pH 3.2, glycine 25 mM)","ddG of mutation (higher = less stable) (pH 7, phosphate 25 mM)","unfolding free energy (pH 7, phosphate 25 mM)","Tm (pH 7, phosphate 25 mM)","change of melting temperature, mutant - wild type (higher = more stable) (pH 7, phosphate 25 mM)","unfolding enthalpy (calorimetric) (pH 7, phosphate 25 mM)","ddG of mutation (higher = less stable) (pH 9.5, glycine 25 mM)","unfolding free energy (pH 9.5, glycine 25 mM)","Tm (pH 9.5, glycine 25 mM)","change of melting temperature, mutant - wild type (higher = more stable) (pH 9.5, glycine 25 mM)","unfolding enthalpy (calorimetric) (pH 9.5, glycine 25 mM)","ddG of mutation (higher = less stable) (pH 3.2, glycine 25 mM)","unfolding free energy (pH 3.2, glycine 25 mM)"
M104D,56.8 °C,3.46 °C,98.7 kcal/mol,-1.6 kcal/mol,7.63 kcal/mol,85.3 °C,3.08 °C,182 kcal/mol,-1.25 kcal/mol,7.29 kcal/mol,83.3 °C,2.59 °C,177 kcal/mol,,
M104L,52.9 °C,-0.43 °C,108 kcal/mol,0.25 kcal/mol,5.78 kcal/mol,81.8 °C,-0.46 °C,193 kcal/mol,0.55 kcal/mol,5.49 kcal/mol,,,,0.13 kcal/mol,5.42 kcal/mol
M104I,,,,0.94 kcal/mol,5.09 kcal/mol,80.4 °C,-1.78 °C,193 kcal/mol,,,78.3 °C,-2.42 °C,189 kcal/mol,0.73 kcal/mol,4.82 kcal/mol
M104V,,,,0.66 kcal/mol,5.37 kcal/mol,81 °C,-1.17 °C,193 kcal/mol,0.95 kcal/mol,5.09 kcal/mol,79 °C,-1.75 °C,189 kcal/mol,0.46 kcal/mol,5.09 kcal/mol
M104G,52.7 °C,-0.7 °C,106 kcal/mol,0.06 kcal/mol,5.97 kcal/mol,,,,0.49 kcal/mol,5.55 kcal/mol,79.8 °C,-0.87 °C,186 kcal/mol,,
M104A,55 °C,1.66 °C,101 kcal/mol,-0.55 kcal/mol,6.58 kcal/mol,83.4 °C,1.16 °C,183 kcal/mol,-0.13 kcal/mol,6.17 kcal/mol,80.9 °C,0.18 °C,178 kcal/mol,-0.54 kcal/mol,6.09 kcal/mol
M104K,57.1 °C,3.71 °C,107 kcal/mol,-0.35 kcal/mol,6.38 kcal/mol,82.9 °C,0.65 °C,192 kcal/mol,-0.05 kcal/mol,6.09 kcal/mol,80.9 °C,0.17 °C,188 kcal/mol,,
M104E,54.3 °C,0.98 °C,103 kcal/mol,-1.05 kcal/mol,7.08 kcal/mol,84.2 °C,1.99 °C,185 kcal/mol,,,,,,-0.35 kcal/mol,5.9 kcal/mol

# Source: FireProtDB (doi:10.1006/jmbi.1995.0325)
